Experiments:
[1] = biological target: recombinant human α4β1 integrin (human) (UniProt P13612); assay: ELISA, coated integrin, supernatant 1:10
[2] = biological target: recombinant human α5β1 integrin (human) (UniProt P08648); assay: ELISA, coated integrin, supernatant 1:10
[3] = biological target: T1, recombinant mouse α5β1 integrin (mouse, UniProt P11688 45-999; P09055 21-728); assay: ELISA, coated integrin, supernatant 1:10
T1 construct: bought recombinant heterodimer (R&D Systems cat. 7728-A5) coated on the plate; also called rm-α5β1
Method: Plates were washed 3 times with Wash Buffer (1× Tris Buffered Saline containing 0.05% Tween20), blocked with 2% BSA in 1×TBS (made from 10× Thermo Scientific Blocker BSA (10×) in TBS; Thermo Fisher Scientific, Waltham, MA, cat. no. 37520) for 2 hours at room temperature (RT) then incubated with hybridoma supernatants diluted 1:10 with Standard Diluent (2% BSA, 1×TBS, 0.05% Tween20). […] Absorbance 450 nm was measured.

[4] = biological target: α5β1 integrin on cells (PMA-activated K562 cells; U87MG cells) (human) (UniProt P08648); assay: flow cytometry on PMA-activated K562 cells, hybridoma supernatant
Chain of α5β1 integrin on cells (PMA-activated K562 cells; U87MG cells) (human) (P08648 42-1049 limits assumed, chain 1 of 2): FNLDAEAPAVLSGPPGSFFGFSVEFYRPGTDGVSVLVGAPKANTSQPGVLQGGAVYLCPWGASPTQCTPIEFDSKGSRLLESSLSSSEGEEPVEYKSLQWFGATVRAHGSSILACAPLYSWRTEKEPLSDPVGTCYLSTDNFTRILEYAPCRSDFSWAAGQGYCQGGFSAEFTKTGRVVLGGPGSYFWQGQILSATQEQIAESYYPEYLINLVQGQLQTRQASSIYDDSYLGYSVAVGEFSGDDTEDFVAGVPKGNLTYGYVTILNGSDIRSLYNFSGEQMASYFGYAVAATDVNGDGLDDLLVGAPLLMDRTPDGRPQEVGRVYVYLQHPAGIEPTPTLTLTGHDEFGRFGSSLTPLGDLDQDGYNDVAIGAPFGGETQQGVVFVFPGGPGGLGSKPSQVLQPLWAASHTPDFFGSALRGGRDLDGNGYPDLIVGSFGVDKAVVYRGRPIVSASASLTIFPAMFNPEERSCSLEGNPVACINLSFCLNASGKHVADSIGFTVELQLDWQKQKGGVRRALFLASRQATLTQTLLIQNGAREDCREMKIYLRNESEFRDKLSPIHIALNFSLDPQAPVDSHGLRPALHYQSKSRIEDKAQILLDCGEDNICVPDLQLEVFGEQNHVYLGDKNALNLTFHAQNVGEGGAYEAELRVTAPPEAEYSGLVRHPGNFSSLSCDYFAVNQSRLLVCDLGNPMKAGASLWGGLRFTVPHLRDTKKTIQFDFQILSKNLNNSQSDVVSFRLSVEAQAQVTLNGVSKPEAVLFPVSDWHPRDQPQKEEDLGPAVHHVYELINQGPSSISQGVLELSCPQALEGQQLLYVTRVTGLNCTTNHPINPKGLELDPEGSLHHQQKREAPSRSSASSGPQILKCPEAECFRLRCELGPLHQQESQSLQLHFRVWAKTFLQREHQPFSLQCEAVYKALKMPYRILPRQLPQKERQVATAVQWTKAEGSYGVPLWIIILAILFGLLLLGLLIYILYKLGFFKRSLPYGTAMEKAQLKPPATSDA
Chain of α5β1 integrin on cells (PMA-activated K562 cells; U87MG cells) (human) (chain, as listed by the source limits assumed, chain 2 of 2): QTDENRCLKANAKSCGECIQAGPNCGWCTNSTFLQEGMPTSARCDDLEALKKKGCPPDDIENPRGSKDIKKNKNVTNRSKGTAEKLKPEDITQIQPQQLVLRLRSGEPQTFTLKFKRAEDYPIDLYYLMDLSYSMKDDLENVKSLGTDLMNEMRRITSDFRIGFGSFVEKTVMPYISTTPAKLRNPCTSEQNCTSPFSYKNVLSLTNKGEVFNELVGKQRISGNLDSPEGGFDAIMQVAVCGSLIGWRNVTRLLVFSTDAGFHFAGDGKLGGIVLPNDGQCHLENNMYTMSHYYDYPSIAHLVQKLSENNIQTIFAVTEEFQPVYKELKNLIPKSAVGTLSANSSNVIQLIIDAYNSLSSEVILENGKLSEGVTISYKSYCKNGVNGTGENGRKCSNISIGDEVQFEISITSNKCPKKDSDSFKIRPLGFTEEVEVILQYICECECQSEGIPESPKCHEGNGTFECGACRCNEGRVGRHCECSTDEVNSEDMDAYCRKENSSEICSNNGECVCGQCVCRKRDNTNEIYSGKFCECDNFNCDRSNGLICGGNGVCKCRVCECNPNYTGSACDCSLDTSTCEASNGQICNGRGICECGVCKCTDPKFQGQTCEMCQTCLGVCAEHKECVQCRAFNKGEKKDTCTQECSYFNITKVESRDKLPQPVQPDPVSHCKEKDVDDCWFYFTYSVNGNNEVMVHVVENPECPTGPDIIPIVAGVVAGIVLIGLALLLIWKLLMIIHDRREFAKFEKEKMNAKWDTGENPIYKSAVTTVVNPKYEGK

[5] = biological target: purified recombinant human α5β1 integrin heterodimer, 6×His tagged (rh-α5β1; Acro Biosystems, cat. no. IT1-H52W5) (human) (UniProt P08648); assay: BLI (Octet), supernatant mAb on anti-mouse IgG Fc sensor, 20 nM rh-α5β1
Chain of purified recombinant human α5β1 integrin heterodimer, 6×His tagged (rh-α5β1; Acro Biosystems, cat. no. IT1-H52W5) (human) (P08648 42-995 limits assumed, form in doubt, chain 1 of 2): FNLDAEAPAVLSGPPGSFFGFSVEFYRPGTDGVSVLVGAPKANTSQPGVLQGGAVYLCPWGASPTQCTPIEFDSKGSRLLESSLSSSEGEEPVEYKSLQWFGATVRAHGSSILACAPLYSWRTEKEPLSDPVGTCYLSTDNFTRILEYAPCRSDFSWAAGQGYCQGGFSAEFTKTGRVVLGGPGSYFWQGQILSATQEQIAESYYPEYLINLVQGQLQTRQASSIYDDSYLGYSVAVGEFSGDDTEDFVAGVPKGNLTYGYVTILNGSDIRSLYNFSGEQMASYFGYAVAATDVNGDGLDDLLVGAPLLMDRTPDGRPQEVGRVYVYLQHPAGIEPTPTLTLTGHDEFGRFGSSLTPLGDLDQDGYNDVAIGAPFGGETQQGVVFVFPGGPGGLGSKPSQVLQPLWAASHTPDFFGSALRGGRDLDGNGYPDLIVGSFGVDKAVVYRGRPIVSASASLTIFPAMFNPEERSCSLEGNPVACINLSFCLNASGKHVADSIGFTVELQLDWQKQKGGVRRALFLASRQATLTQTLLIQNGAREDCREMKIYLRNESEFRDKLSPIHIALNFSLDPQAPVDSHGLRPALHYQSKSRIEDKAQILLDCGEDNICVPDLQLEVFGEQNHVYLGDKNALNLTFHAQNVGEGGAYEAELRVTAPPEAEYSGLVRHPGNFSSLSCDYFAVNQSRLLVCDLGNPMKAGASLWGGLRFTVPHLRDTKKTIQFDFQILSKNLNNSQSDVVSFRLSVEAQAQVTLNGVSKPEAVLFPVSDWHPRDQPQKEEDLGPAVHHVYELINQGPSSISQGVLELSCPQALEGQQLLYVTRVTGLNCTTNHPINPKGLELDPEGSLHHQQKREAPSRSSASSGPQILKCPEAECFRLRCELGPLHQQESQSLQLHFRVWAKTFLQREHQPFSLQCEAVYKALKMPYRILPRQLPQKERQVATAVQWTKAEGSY
Chain of purified recombinant human α5β1 integrin heterodimer, 6×His tagged (rh-α5β1; Acro Biosystems, cat. no. IT1-H52W5) (human) (chain, as listed by the source limits assumed, form in doubt, chain 2 of 2): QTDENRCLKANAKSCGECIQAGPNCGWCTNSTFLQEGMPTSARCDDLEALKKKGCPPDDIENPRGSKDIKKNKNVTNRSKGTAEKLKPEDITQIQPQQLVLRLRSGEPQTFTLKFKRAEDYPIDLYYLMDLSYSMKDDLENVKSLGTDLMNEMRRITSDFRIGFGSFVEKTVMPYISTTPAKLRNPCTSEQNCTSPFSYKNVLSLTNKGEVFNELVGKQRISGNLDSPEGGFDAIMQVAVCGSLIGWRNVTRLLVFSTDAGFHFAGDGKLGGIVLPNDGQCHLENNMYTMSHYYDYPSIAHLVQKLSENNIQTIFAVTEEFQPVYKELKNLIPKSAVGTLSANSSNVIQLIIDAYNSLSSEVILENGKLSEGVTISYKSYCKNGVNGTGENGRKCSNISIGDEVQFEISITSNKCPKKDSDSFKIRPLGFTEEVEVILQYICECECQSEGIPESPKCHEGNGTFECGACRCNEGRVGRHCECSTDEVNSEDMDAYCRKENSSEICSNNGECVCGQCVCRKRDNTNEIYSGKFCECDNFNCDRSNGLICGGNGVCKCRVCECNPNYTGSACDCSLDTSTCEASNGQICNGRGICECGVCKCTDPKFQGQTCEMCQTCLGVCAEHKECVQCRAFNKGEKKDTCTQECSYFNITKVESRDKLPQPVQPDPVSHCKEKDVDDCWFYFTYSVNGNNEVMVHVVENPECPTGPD

Chain of recombinant human α4β1 integrin (human) (P13612 34-977 limits assumed, form in doubt, chain 1 of 2): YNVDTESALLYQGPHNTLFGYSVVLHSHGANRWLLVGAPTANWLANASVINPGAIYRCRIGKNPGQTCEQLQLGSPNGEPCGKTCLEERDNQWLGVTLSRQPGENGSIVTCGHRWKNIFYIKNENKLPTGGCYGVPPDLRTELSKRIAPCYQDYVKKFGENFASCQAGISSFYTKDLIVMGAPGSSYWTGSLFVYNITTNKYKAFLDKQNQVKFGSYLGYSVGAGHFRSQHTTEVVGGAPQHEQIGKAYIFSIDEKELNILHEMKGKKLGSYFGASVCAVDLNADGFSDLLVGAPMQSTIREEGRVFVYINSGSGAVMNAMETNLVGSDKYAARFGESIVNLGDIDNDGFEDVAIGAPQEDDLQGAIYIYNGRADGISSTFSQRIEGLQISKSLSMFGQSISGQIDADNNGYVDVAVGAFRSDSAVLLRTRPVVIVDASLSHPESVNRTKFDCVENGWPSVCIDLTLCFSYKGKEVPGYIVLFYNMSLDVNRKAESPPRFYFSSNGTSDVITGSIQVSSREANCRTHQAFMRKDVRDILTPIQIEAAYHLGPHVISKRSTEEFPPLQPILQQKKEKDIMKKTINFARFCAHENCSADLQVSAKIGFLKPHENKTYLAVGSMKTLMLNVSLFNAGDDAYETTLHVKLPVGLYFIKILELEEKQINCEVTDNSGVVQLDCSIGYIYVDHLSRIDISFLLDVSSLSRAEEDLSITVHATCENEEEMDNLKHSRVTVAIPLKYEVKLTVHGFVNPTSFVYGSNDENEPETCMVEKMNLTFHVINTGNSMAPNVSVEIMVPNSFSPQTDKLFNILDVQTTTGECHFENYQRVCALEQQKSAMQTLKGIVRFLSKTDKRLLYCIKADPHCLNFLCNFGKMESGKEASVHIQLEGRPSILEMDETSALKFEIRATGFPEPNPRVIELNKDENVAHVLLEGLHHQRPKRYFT
Chain of recombinant human α4β1 integrin (human) (chain, as listed by the source limits assumed, form in doubt, chain 2 of 2): as the sequence (chain, as listed by the source limits assumed, form in doubt, chain 2 of 2) above
Chain of recombinant human α5β1 integrin (human) (P08648 42-995 limits assumed, form in doubt, chain 1 of 2): as the sequence (P08648 42-995 limits assumed, form in doubt, chain 1 of 2) above
Chain of recombinant human α5β1 integrin (human) (chain, as listed by the source limits assumed, form in doubt, chain 2 of 2): as the sequence (chain, as listed by the source limits assumed, form in doubt, chain 2 of 2) above

- Absorbance 450 nm [1]: 0.0793 A450
- Absorbance 450 nm [2]: 0.478 A450
- Absorbance 450 nm [3]: 0.0709 A450
- MFI [4]: 1970
- Kd [5]: 4.67 nM
- koff [5]: 0.00129 s⁻¹
- kon [5]: 276000 M⁻¹ s⁻¹
B1: A-15C03 (antibody, part only; not given: light chain, V domains shown, part only)
VH: QVQLKESGPGLVAPSQSLSITCTISGFSLTTYGVHWVRQPPGKGLEWLVVIWSDGSTTYNSALKSRLNITKDNSKSQVFLKMNSLQTDDTAMYYCVRHGGLLRRDAMDYWGQGTSVTVSS
